Literature values as cited in doi:10.1101/2022.08.17.503475.

Target: Glu14 (UniProt position 14, GAILAEVIGTT)
Test: NMR
Conditions: TPP+-bound; alternating access in slow exchange throughout the tested pH range

EmrE (multidrug transporter EmrE, small multidrug resistance family) (Escherichia coli)
pKa: 6.8 ± 0.1
